The record followed here is patent publication US20100099619A1.

For assay [1], the target named is T1, neuropeptide Y1 receptor, P25929.
T1 chain: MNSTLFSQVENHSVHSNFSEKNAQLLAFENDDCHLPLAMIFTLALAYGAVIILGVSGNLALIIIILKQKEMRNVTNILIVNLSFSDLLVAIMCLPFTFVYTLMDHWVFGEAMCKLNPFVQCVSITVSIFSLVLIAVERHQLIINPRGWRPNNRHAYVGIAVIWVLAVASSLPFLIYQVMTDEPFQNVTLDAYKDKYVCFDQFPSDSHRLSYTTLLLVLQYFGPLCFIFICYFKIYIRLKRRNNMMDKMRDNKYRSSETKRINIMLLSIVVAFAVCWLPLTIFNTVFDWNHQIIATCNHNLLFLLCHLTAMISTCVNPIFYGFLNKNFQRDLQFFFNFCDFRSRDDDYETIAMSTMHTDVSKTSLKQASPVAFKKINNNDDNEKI
The assay can be described thus: displacement of [125I]-human PYY, SK-N-MC membranes. In general terms: In a radioligand displacement assay an active substance lowers the binding of a labelled ligand.

The target in assay [2] is T2, neuropeptide Y2 receptor, P49146.
T2 chain: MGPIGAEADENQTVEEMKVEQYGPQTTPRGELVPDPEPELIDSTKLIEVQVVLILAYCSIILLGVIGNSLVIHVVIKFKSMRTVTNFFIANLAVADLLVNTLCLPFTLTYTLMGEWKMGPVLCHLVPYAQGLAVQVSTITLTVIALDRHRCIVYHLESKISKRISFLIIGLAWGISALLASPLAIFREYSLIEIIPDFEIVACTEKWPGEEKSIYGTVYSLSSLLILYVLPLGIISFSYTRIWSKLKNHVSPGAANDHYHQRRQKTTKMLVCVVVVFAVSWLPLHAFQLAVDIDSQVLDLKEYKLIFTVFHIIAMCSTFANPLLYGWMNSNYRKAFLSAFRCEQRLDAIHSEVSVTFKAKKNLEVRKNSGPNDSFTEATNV
Briefly: displacement of [125I]-human PYY, SK-N-BE membranes.

A further assay addresses neuropeptide Y4 receptor. The assay can be described thus: displacement of [125I]-human PP, Y4-transfected CHO-K1 membranes.
The target in the next assay is neuropeptide Y5 receptor. The assay can be described thus: displacement of [125I]-human PYY, Y5-transfected CHO-K1 membranes.

Chain of neuropeptide Y4 receptor (P50391 whole entry): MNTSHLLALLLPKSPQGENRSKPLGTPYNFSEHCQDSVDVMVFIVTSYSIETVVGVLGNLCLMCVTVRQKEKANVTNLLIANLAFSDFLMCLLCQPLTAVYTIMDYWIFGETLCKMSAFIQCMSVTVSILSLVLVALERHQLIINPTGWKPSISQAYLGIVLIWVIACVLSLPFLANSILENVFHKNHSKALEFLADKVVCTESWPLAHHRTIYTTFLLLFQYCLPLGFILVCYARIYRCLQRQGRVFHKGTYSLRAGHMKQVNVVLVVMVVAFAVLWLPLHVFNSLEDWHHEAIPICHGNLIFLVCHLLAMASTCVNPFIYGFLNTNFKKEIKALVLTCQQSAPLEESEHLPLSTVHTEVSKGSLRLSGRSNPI

Take IAPEAPGEDASPEELAQYAADLRRYINMLTRQRY (modifications not checked) [SEQ ID NO: 477]: the Y1RBA in assay [1] was found to be 265 nM. The Y2RBA in assay [2] amounted to 4.4 nM. This molecule showed a Y4 RBA with neuropeptide Y4 receptor of 164 nM. The Y5RBA with neuropeptide Y5 receptor turned out to be 18 nM.

In assay [1], YPIAPEAPGEDASPEELAQYAADLRRYINMLTRQRY (modifications not checked) [SEQ ID NO: 476] had a Y1RBA of 27 nM. The Y2RBA in assay [2] came to 7.4 nM. In the assay with neuropeptide Y4 receptor, this molecule had a Y4 RBA of 53 nM. The Y5RBA with neuropeptide Y5 receptor is 15 nM.
